According to publication PMC4523612 (The Journal of Cell Biology, 2015):

T1: Eg5 (UniProt P52732 1-1056)
T1 sequence: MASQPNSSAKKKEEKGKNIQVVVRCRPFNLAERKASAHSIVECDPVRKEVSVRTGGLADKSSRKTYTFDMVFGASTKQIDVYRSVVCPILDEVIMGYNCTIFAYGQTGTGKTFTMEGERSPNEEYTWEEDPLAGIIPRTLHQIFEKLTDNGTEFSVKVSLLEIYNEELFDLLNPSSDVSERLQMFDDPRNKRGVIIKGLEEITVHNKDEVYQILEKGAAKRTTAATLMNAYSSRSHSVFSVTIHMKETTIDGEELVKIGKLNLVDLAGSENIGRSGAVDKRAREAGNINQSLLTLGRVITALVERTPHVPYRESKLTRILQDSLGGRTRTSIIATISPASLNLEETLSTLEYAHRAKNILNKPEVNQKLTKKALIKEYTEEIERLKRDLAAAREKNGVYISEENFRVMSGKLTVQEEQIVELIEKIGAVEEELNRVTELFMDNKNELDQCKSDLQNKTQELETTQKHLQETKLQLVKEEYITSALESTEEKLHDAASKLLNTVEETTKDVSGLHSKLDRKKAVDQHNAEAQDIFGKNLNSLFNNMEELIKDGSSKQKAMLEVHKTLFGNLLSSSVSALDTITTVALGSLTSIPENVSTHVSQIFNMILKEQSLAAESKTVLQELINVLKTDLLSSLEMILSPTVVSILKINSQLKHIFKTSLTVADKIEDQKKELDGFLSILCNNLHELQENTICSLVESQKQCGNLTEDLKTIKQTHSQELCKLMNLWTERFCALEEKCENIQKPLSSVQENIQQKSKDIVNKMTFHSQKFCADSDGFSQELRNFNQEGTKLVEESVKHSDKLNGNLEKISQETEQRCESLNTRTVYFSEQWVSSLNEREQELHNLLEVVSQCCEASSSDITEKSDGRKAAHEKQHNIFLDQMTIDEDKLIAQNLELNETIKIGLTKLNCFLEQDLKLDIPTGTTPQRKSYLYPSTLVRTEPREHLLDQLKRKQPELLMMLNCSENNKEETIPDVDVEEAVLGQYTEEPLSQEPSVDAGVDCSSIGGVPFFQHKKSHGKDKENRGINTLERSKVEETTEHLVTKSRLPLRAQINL


Experiments:
Eg5 [1] = molecular target: Eg5 (UniProt P52732)
Eg5 [2] = molecular target: T1, Eg5

binding relative to WT (% less than WT) (Eg5 [1]) | binding relative to WT (Eg5 [2]) | Molecule
41 |  | GFP-TPX2-2D (from UniProt Q9ULW0 1-747) (natural protein)
 | 41 % less than WT | GFP-TPX2-2A (S121/125A) (natural protein) MSQVKSSYSYDAPSDFINFSSLDDEGDTQNIDSWFEEKANLENKLLGKNGTGGLFQGKTPLRKANLQQAIVTPLKPVDNTYYKEAEKENLVEQSIPSNACSSLEVEAAISRKTPAQPQRRALRLAAQKDLEQKEKHHVKMKAKRCATPVIIDEILPSKKMKVSNNKKKPEEEGSAHQDTAEKNASSPEKAKGRHTVPCMPPAKQKFLKSTEEQELEKSMKMQQEVVEMRKKNEEFKKLALAGIGQPVKKSVSQVTKSVDFHFRTDERIKQHPKNQEEYKEVNFTSELRKHPSSPARVTKGCTIVKPFNLSQGKKRTFDETVSTYVPLAQQVEDFHKRTPNRYHLRSKKDDINLLPSKSSVTKICRDPQTPVLQTKHRARAVTCKSTAELEAEELEKLQQYKFKARELDPRILEGGPILPKKPPVKPPTEPIGFDLEIEKRIQERESKKKTEDEHFEFHSRPCPTKILEDVVGVPEKKVLPITVPKSPAFALKNRIRMPTKEDEEEDEPVVIKAQPVPHYGVPFKPQIPEARTVEICPFSFDSRDKERQLQKEKKIKELQKGEVPKFKALPLPHFDTINLPEKKVKNVTQIEPFCLETDRRGALKAQTWKHQLEEELRQQKEAACFKARPNTVISQEPFVPKKEKKSVAEGLSGSLVQEPFQLATEKRAKERQELEKRMAEVEAQKAQQLEEARLQEEEQKKEELARLRRELVHKANPIRKYQGLEIKSSDQPLTVPVSPKFSTRFHC
